Assay results published in patent US6632624.

Target: CGS20
Test: competition: pancreastatin peptide (0.5 µg per tube) added in second incubation of CGS06/CGS20* IRMA

B1: synthetic peptide corresponding to pancreastatin (SEQ ID NO:1 amino acids 250 to 301 of human CgA) (peptide)
peptide: GESRSEALAVDGAGKPGAEEAQDPEGKGEQEHSQQKEEEEEMAVVPQGLFRG
% inhibition: 86%
